Assay results taken from paper PMC3372767 (Biochimica et Biophysica Acta, 2012).

What was measured:
[1] = target: full-length ectodomain of human CSF-1R (hCSF-1R D1-D5) (human, UniProt P07333 20-517); test: ITC
[2] = target: N-terminal three Ig-like domains of human CSF-1R (hCSF-1R D1-D3) (human, UniProt P07333 20-298); test: ITC
Sequence of N-terminal three Ig-like domains of human CSF-1R (hCSF-1R D1-D3) (P07333 20-298): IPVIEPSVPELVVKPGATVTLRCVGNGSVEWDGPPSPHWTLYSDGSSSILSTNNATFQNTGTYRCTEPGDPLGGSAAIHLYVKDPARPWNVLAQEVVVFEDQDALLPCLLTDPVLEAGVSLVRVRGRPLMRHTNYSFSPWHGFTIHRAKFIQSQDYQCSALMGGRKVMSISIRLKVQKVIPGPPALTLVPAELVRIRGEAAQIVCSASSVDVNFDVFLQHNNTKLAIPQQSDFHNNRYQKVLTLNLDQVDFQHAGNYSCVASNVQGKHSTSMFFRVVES

Sequence of full-length ectodomain of human CSF-1R (hCSF-1R D1-D5) (P07333 20-517): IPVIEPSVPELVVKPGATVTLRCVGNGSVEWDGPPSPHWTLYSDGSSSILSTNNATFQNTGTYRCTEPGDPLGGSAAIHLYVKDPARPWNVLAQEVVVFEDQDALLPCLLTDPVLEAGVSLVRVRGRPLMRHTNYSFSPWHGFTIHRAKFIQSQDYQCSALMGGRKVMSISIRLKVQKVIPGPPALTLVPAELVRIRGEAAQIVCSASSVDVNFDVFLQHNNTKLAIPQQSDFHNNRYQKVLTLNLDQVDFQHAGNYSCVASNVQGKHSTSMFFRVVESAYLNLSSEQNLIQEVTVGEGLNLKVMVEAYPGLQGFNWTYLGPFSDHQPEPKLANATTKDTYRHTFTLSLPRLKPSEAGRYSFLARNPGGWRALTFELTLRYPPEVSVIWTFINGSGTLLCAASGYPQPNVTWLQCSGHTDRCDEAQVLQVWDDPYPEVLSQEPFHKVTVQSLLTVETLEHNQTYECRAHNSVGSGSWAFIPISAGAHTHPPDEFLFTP

B1: human IL-34 (ligand, UniProt Q6ZMJ4 21-242, looked up)
chain: NEPLEMWPLTQNEECTVTGFLRDKLQYRSRLQYMKHYFPINYKISVPYEGVFRIANVTRLQRAQVSERELRYLWVLVSLSATESVQDVLLEGHPSWKYLQEVETLLLNVQQGLTDVEVSPKVESVLSLLNAPGPNLKLVRPKALLDNCFRVMELLYCSCCKQSSVLNWQDCEVPSPQSCSPEPSLQYAATQLYPPPPWSPSSPPHSTGSVRPVRAQGEGLLP
fold higher affinity than to CSF-1R D1-D3 [1]: ~400 fold
stoichiometry N [1]: 1
stoichiometry N [2]: 1
